These are literature values, as cited in PMC3131494.

The data set has as its target eNOS (UniProt P29474).
Sequence of UniProt P29474 (P29474 2-1203): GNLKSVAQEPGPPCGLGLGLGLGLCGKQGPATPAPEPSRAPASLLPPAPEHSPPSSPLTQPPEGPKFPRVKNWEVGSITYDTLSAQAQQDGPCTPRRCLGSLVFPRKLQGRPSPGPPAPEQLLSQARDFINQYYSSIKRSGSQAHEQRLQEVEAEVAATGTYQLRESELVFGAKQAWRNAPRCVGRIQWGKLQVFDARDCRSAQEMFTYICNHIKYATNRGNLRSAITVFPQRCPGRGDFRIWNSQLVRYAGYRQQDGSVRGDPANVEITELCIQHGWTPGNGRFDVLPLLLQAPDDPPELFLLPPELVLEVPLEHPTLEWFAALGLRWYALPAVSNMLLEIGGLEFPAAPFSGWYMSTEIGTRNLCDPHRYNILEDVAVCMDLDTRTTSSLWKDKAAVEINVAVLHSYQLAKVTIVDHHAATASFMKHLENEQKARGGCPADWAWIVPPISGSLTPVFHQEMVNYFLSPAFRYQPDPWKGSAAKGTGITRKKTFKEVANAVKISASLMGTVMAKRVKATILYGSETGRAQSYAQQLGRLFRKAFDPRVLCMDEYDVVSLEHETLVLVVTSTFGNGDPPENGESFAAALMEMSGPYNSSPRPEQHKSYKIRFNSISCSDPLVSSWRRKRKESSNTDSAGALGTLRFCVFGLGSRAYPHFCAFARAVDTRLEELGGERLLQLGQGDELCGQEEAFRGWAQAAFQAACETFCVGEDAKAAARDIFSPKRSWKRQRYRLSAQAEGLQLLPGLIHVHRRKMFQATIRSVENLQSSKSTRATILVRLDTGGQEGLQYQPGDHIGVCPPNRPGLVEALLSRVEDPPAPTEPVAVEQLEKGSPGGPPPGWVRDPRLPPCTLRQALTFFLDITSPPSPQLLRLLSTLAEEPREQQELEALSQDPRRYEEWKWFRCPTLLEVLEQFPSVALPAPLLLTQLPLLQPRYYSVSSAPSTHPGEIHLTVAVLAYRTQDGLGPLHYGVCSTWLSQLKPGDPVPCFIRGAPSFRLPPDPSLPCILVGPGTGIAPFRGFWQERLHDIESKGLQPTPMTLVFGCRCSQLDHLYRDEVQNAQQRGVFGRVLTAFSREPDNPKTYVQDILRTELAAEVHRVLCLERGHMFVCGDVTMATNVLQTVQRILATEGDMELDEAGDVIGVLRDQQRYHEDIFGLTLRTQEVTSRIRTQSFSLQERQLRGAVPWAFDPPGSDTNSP

For orientation: Kd means the equilibrium constant for the complex coming apart. For the substance dynamin (from UniProt P50570), the equilibrium dissociation constant (Kd) is 30 nM.
